Results reported in the supplement of paper PMC10724198.
± gives the standard deviation of the averaged measurements.

Columns and labels:
Saccharomyces cerevisiae [1] = test: protein stability index of tFT-peptide fusion (C-terminal peptide) (PSI (0-1 scale)); higher = more stable (slower turnover)
Description: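 MPS profiling in S. cerevisiae of the tFT-X12 degron library: putative degron peptides plus stable controls, 12 aa, fused to the C-terminus of a sfGFP-mCherry timer. Cells are FACS-sorted into 8 mCherry/sfGFP bins and deep-sequenced. PSI runs from 0 (unstable) to 1 (stable). Backgrounds are wild type, das1Δ and doa10Δ at 30 °C, and wild type, das1Δ, cdc34-1 and cdc53-1 at 37 °C; 2-3 technical replicates each.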

Saccharomyces cerevisiae [2] = test: as above; conditions: genetic background: wild type; temperature: 30 C
[3] = genetic background: cdc34-1, temperature: 37 C
[4] = genetic background: cdc53-1, temperature: 37 C
[5] = genetic background: das1 deletion, temperature: 30 C
[6] = genetic background: das1 deletion, temperature: 37 C
[7] = genetic background: doa10 deletion, temperature: 30 C
[8] = genetic background: wild type, temperature: 30 C
[9] = genetic background: wild type, temperature: 37 C
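Note: PSI is a weighted mean of sequencing reads over stability bins, variants kept only with over 10 reads, mCherry proximal and sfGFP distal, peptide attached via GGGS linker.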

Row | Sequence | protein stability index (Saccharomyces cerevisiae [1]; [3]) | protein stability index (Saccharomyces cerevisiae [1]; [4]) | protein stability index (Saccharomyces cerevisiae [1]; [5]) | protein stability index (Saccharomyces cerevisiae [1]; [6]) | protein stability index (Saccharomyces cerevisiae [1]; [7]) | protein stability index (Saccharomyces cerevisiae [1]; [8]) | protein stability index (Saccharomyces cerevisiae [1]; [9]) | protein stability index (Saccharomyces cerevisiae [2])
1 | RNKIWCTVIMRL | 0.51 ± 0.042 | 0.537 ± 0.0088 | 0.453 ± 0.036 | 0.597 ± 0.02 | 0.229 ± 0.01 | 0.234 ± 0.046 | 0.396 ± 0.02 | 0.4002 ± 0.0026
2 | RPAVVPPPFAPL | 0.652 ± 0.032 | 0.724 ± 0.023 | 0.707 ± 0.0089 | 0.7172 ± 0.0055 | 0.708 ± 0.018 | 0.695 ± 0.01 | 0.6996 ± 0.003 | 0.76 ± 0.041
3 | RQALYFLMICGL | 0.508 ± 0.024 | 0.564 ± 0.023 | 0.407 ± 0.039 | 0.545 ± 0.0071 | 0.29391 ± 6e-05 | 0.318 ± 0.019 | 0.459 ± 0.027 | 0.421 ± 0.0045
4 | RRIKIRKQEYIS | 0.572 ± 0.13 | 0.696 ± 0.04 | 0.684 ± 0.029 | 0.719 ± 0.018 | 0.185 ± 0.0051 | 0.217 ± 0.023 | 0.459 ± 0.021 | 0.313 ± 0.029
5 | RRRRHVDHSTQR | 0.495 ± 0.04 | 0.572 ± 0.0085 | 0.542 ± 0.011 | 0.582 ± 0.011 | 0.557 ± 0.038 | 0.554 ± 0.045 | 0.5704 ± 0.0037 | 0.4737 ± 0.0036
6 | RTWLHLVVPVWG | 0.213 ± 0.026 | 0.265 ± 0.044 | 0.222 ± 0.034 | 0.3778 ± 0.0024 | 0.19 ± 0.0051 | 0.228 ± 0.037 | 0.318 ± 0.014 | 0.3367 ± 0.0022
7 | RVGWVVVLGCVG | 0.545 ± 0.04 | 0.548 ± 0.014 | 0.401 ± 0.027 | 0.578 ± 0.012 | 0.366 ± 0.009 | 0.397 ± 0.015 | 0.55 ± 0.014 | 0.479 ± 0.0089
8 | RVHFLIVFLCRF | 0.441 ± 0.012 | 0.4927 ± 0.0037 | 0.369 ± 0.011 | 0.526 ± 0.012 | 0.398 ± 0.024 | 0.361 ± 0.014 | 0.472 ± 0.021 | 0.399 ± 0.051
9 | RVSIIYLGVLIS | 0.174 ± 0.012 | 0.297 ± 0.025 | 0.26 ± 0.024 | 0.436 ± 0.0092 | 0.0604 ± 0.011 | 0.073 ± 0.013 | 0.0592 ± 0.036 | 0.112 ± 0.025
10 | RVTYWKAVLVRL | 0.47 ± 0.07 | 0.461 ± 0.022 | 0.44 ± 0.031 | 0.6 ± 0.017 | 0.108 ± 0.025 | 0.109 ± 0.025 | 0.13 ± 0.0084 | 0.212 ± 0.016
11 | RYCVVDISAFCD | 0.489 ± 0.017 | 0.576 ± 0.021 | 0.368 ± 0.029 | 0.5947 ± 0.0057 | 0.37 ± 0.017 | 0.388 ± 0.026 | 0.573 ± 0.024 | 0.465 ± 0.0094
12 | RYLCLTPALYLS | 0.45 ± 0.014 | 0.5588 ± 0.0053 | 0.509 ± 0.027 | 0.621 ± 0.0072 | 0.125 ± 0.017 | 0.113 ± 0.012 | 0.157 ± 0.016 | 0.151 ± 0.11
13 | SCFRFFFLFLFF | 0.192 ± 0.011 | 0.197 ± 0.0042 | 0.282 ± 0.024 | 0.361 ± 0.016 | 0.4322 ± 0.00071 | 0.238 ± 0.043 | 0.312 ± 0.0097 | 0.322 ± 0.052
14 | SCFRSLAVYFLC | 0.333 ± 0.025 | 0.624 ± 0.02 | 0.603 ± 0.033 | 0.678 ± 0.01 | 0.0706 ± 0.0018 | 0.07 ± 0.015 | 0.0763 ± 0.0025 | 0.155 ± 0.032
15 | SCLVLDYCFSLV | 0.649 ± 0.037 | 0.631 ± 0.012 | 0.419 ± 0.029 | 0.643 ± 0.0034 | 0.446 ± 0.019 | 0.435 ± 0.02 | 0.613 ± 0.0062 | 0.442 ± 0.016
16 | SCYDYVILLQLS | 0.506 ± 0.051 | 0.65547 ± 0.00031 | 0.435 ± 0.04 | 0.619 ± 0.025 | 0.178 ± 0.01 | 0.213 ± 0.042 | 0.393 ± 0.0047 | 0.304 ± 0.026
17 | SFFFTLLICFLF | 0.161 ± 0.017 | 0.107 ± 0.0062 | 0.234 ± 0.0085 | 0.312 ± 0.0082 | 0.26 ± 0.021 | 0.166 ± 0.028 | 0.244 ± 0.018 | 0.253 ± 0.011
18 | SFLLGCCWLVLC | 0.222 ± 0.04 | 0.309 ± 0.0045 | 0.27 ± 0.03 | 0.3934 ± 0.0034 | 0.1353 ± 0.00058 | 0.116 ± 0.0073 | 0.127 ± 0.0028 | 0.155 ± 0.0099
19 | SFLLVWCLLPEI | 0.364 ± 0.056 | 0.479 ± 0.096 | 0.309 ± 0.029 | 0.4729 ± 0.0046 | 0.2695 ± 0.0018 | 0.299 ± 0.035 | 0.451 ± 0.033 | 0.415 ± 0.0064
20 | SFLVFLYFFMVF | 0.3637 ± 0.0027 | 0.429 ± 0.058 | 0.335 ± 0.038 | 0.449 ± 0.02 | 0.316 ± 0.016 | 0.303 ± 0.034 | 0.446 ± 0.031 | 0.379 ± 0.013

Row | Sequence | protein stability index (Saccharomyces cerevisiae [1]; [3]) | protein stability index (Saccharomyces cerevisiae [1]; [4]) | protein stability index (Saccharomyces cerevisiae [1]; [5]) | protein stability index (Saccharomyces cerevisiae [1]; [6]) | protein stability index (Saccharomyces cerevisiae [1]; [7]) | protein stability index (Saccharomyces cerevisiae [1]; [8]) | protein stability index (Saccharomyces cerevisiae [1]; [9]) | protein stability index (Saccharomyces cerevisiae [2])
21 | SGWGGGTWVKMG | 0.537 ± 0.019 | 0.721 ± 0.046 | 0.662 ± 0.024 | 0.76 ± 0.011 | 0.113 ± 0.013 | 0.12 ± 0.013 | 0.191 ± 0.018 | 0.3093 ± 0.0025
22 | SIQRKIRRMKEN | 0.559 ± 0.093 | 0.732 ± 0.046 | 0.699 ± 0.048 | 0.7 ± 0.014 | 0.355 ± 0.017 | 0.333 ± 0.054 | 0.566 ± 0.0026 | 0.4687 ± 0.0016
23 | SIVDLFRLRSLS | 0.643 ± 0.022 | 0.722 ± 0.016 | 0.684 ± 0.008 | 0.7295 ± 0.0054 | 0.264 ± 0.032 | 0.298 ± 0.012 | 0.519 ± 0.0074 | 0.374 ± 0.12
24 | SLALLFSFLLFL | 0.504 ± 0.041 | 0.404 ± 0.028 | 0.448 ± 0.021 | 0.536 ± 0.0096 | 0.605 ± 0.056 | 0.461 ± 0.015 | 0.54 ± 0.042 | 0.438 ± 0.013
25 | SLFPHIFFFFFA | 0.43487 ± 0.00035 | 0.467 ± 0.015 | 0.386 ± 0.036 | 0.428 ± 0.0029 | 0.343 ± 0.015 | 0.295 ± 0.032 | 0.384 ± 0.0099 | 0.49 ± 0.013
26 | SLICLSVGVLLR | 0.128 ± 0.024 | 0.181 ± 0.061 | 0.189 ± 0.029 | 0.337 ± 0.071 | 0.205 ± 0.003 | 0.188 ± 0.039 | 0.258 ± 0.021 | 0.292 ± 0.0045
27 | SLSSSFQFSSPS | 0.701 ± 0.035 | 0.7506 ± 0.0045 | 0.69 ± 0.051 | 0.722 ± 0.026 | 0.6672 ± 0.00083 | 0.65 ± 0.032 | 0.7357 ± 0.0029 | 0.726 ± 0.094
28 | SPIGIFCFILCR | 0.0729 ± 0.011 | 0.0462 ± 0.023 | 0.153 ± 0.027 | 0.211 ± 0.016 | 0.176 ± 0.019 | 0.147 ± 0.038 | 0.157 ± 0.013 | 0.187 ± 0.049
29 | SPTQIPLWILAS | 0.258 ± 0.0095 | 0.394 ± 0.04 | 0.308 ± 0.04 | 0.4539 ± 0.0022 | 0.102 ± 0.0074 | 0.114 ± 0.014 | 0.12 ± 0.015 | 0.186 ± 0.015
30 | SRGRVLRLLLLV | 0.303 ± 0.0055 | 0.428 ± 0.013 | 0.393 ± 0.025 | 0.524 ± 0.0093 | 0.0727 ± 0.011 | 0.0574 ± 0.026 | 0.0678 ± 0.018 | 0.124 ± 0.0028
31 | SRRCGLFVFILF | 0.387 ± 0.042 | 0.378 ± 0.028 | 0.324 ± 0.041 | 0.49 ± 0.021 | 0.365 ± 0.008 | 0.277 ± 0.03 | 0.471 ± 0.006 | 0.392 ± 0.03
32 | SRSFFRRLLFCF | 0.642 ± 0.033 | 0.7705 ± 0.0056 | 0.679 ± 0.022 | 0.8141 ± 0.0018 | 0.3352 ± 0.0008 | 0.352 ± 0.0083 | 0.4821 ± 0.0037 | 0.396 ± 0.016
33 | SSAPPTLHTRPS | 0.642 ± 0.027 | 0.7092 ± 0.0049 | 0.662 ± 0.023 | 0.686 ± 0.012 | 0.664 ± 0.0071 | 0.6631 ± 0.0044 | 0.681 ± 0.0066 | 0.539 ± 0.059
34 | SSRRVVLPLLVA | 0.336 ± 0.057 | 0.402 ± 0.0094 | 0.309 ± 0.032 | 0.481 ± 0.0058 | 0.123 ± 0.011 | 0.136 ± 0.033 | 0.131 ± 0.027 | 0.202 ± 0.027
35 | SVHKYGFIKEIN | 0.732 ± 0.026 | 0.70852 ± 0.00021 | 0.668 ± 0.061 | 0.761 ± 0.023 | 0.473 ± 0.035 | 0.474 ± 0.046 | 0.667 ± 0.016 | 0.531 ± 0.047
36 | SVVLCRFVLRIF | 0.0423 ± 0.011 | 0.109 ± 0.055 | 0.136 ± 0.015 | 0.181 ± 0.039 | 0.0747 ± 0.0075 | 0.0735 ± 0.017 | 0.136 ± 0.038 | 0.128 ± 0.018
37 | SVVWIRFVGVRV | 0.472 ± 0.026 | 0.507 ± 0.022 | 0.322 ± 0.024 | 0.5291 ± 0.0048 | 0.285 ± 0.0075 | 0.328 ± 0.016 | 0.499 ± 0.0089 | 0.418 ± 0.0043
38 | SWFNLLSILPRD | 0.699 ± 0.022 | 0.7053 ± 0.0039 | 0.7 ± 0.088 | 0.784 ± 0.022 | 0.714 ± 0.029 | 0.683 ± 0.019 | 0.736 ± 0.045 | 0.7305 ± 0.0018
39 | SWIKRYEITCIL | 0.543 ± 0.033 | 0.568 ± 0.026 | 0.424 ± 0.044 | 0.5973 ± 0.0036 | 0.363 ± 0.0093 | 0.39 ± 0.0099 | 0.492 ± 0.027 | 0.478 ± 0.015
